B1: KtrA (wild type), cytosolic RCK ring protein of the KtrAB K+ transporter from Bacillus subtilis (natural protein, UniProt O32080 1-222, looked up)
chain: MGRIKNKQFAVIGLGRFGGSICKELHRMGHEVLAVDINEEKVNAYASYATHAVIANATEENELLSLGIRNFEYVIVAIGANIQASTLTTLLLKELDIPNIWVKAQNYYHHKVLEKIGADRIIHPEKDMGVKIAQSLSDENVLNYIDLSDEYSIVELLATRKLDSKSIIDLNVRAKYGCTILAIKHHGDICLSPAPEDIIREQDCLVIMGHKKDIKRFENEGM
notes: KtrA, RCK domain protein of the KtrAB K+ transporter, Bacillus subtilis, GenBank KIX81590.1; eluted and kept with ADP or ATP; also called full-length KtrA; wild type KtrA; source: E. coli BL21(DE3), purified (anion exchange, ADP-agarose, Superdex-S200)
B2: KtrAΔC, C-terminal domain truncated KtrA (tandem of two N-terminal KtrA domains) (domain or fragment, Bacillus subtilis)
chain: MGRIKNKQFAVIGLGRFGGSICKELHRMGHEVLAVDINEEKVNAYASYATHAVIANATEENELLSLGIRNFEYVIVAIGANIQASTLTTLLLKELDIPNIWVKAQNYYHHKVLEKIGADRIIHPEKDMGVKIAQSLSDENVLNYLEGSKQFAVIGLGRFGGSICKELHRMGHEVLAVDINEEKVNAYASYATHAVIANATEENELLSLGIRNFEYVIVAIGANIQASTLTTLLLKELDIPNIWVKAQNYYHHKVLEKIGADRIIHPEKDMGVKIAQSLSDENVLNY
notes: KtrA N-terminal domain, Bacillus subtilis, GenBank KIX81590.1, residues 1-144 (first copy of the tandem); linker between the two N-terminal domains; KtrA N-terminal domain, Bacillus subtilis, GenBank KIX81590.1, residues 7-144 (second copy of the tandem); Lacks KtrA residues 145-222 (the whole C-terminal domain); Forms an octameric ring counted in N-terminal domains; each chain carries two of …
B3: KtrB (wild type), membrane protein of the KtrAB K+ transporter from Bacillus subtilis (natural protein)
chain: MTLQKDKVIKWVRFTPPQVLAIGFFLTIIIGAVLLMLPISTTKPLSWIDALFTAASATTVTGLAVVDTGTQFTVFGQTVIMGLIQIGGLGFMTFAVLIVMILGKKIGLKERMLVQEALNQPTIGGVIGLVKVLFLFSISIELIAALILSIRLVPQYGWSSGLFASLFHAISAFNNAGFSLWPDNLMSYVGDPTVNLVITFLFITGGIGFTVLFDVMKNRRFKTFSLHTKLMLTGTLMLNAIAMLTVFILEYSNPGTLGHLHIVDKLWASYFQAVTPRTAGFNSLDFGSMREGTIVFTLLLMFIGAGSASTASGIKLTTFIVILTSVIAYLRGKKETVIFRRSIKYPIIIKALAVSVTSLFIVFLGIFALTITEQAPFLQIVFETFSAFGTVGLTMGLTPELTTAGKCIIIVIMFIGRIGPLTFVFSFAKTEQSNIRYPDGEVFTG
notes: KtrB, membrane protein of the KtrAB K+ transporter, Bacillus subtilis, GenBank KIX81591.1; In detergent (DDM or cymal-6), or reconstituted in E. coli polar lipid liposomes for the float-up; also called KtrB wt; wild-type KtrB; source: E. coli BL21(DE3), purified (DDM extraction, Talon resin, thrombin, Superdex-200); not shown: His tag, N-terminal, cleaved

How the values were obtained:
[1] = target: the molecule itself; assay: crystal structure; wild-type KtrAB with ADP, 8 Å diffraction dataset; molecular replacement searches and an averaged map only (low resolution model); crystals from 100 mM Hepes pH 7.5, 1 M NaCl, 10% PEG4000, 20°C
[2] = target: B3; assay: SEC; size-exclusion purified KtrB (wild type or mutant) mixed with an excess of KtrA (wild type, KtrAC0 or KtrAΔC), run in the presence of ATP or ADP, in detergent; SDS-PAGE of the fractions; conditions: both partners purified
[3] = target: the molecule itself; assay: crystal structure; KtrAΔCB with bound ADP, data to 6 Å, molecular replacement, 4-fold and 8-fold averaging, DEN refinement; crystals from 100 mM Tris-HCl pH 8.5, 18%–22% PEG400, 100–200 mM CaCl2, 20°C

Binder	binding result [1]	binding result [2]	binding result [3]	stoichiometry N [3]
B1	binds	binds	–	–
B2	–	binds	binds	–
B3	–	–	–	2

From publication PMC4714889, “Dissecting the Molecular Mechanism of Nucleotide-Dependent Activation of the KtrAB K^+ Transporter” (PLoS Biology, 2016)
